The results in this text go back to patent US20080081043A1 (published 2008).

The target in the assay is T1, human CD48 (full-length hCD48), on cells (human, UniProt P09326 27-220).
T1 construct: also called membrane-associated CD48
T1 sequence: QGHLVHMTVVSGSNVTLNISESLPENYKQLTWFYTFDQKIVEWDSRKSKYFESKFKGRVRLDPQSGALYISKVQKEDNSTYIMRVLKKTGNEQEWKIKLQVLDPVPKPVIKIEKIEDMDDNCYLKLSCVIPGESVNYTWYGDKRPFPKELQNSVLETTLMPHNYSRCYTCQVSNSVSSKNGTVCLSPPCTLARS
The assay can be described thus: not told at this place (summary sentence in the description). How it is done: Equilibrium binding assays were performed on transiently expressed hCD48. Full-length hCD48 in the expression vector pDC409 was transfected into CV-1/EBNA cells and these cells were diluted 1:20 into a carrier cell (Daudi). Serial dilutions of NAIL-Fc in binding media (RPMI 1640), 2.5% bovine serum albumin, […] HEPES, 0.02% Na azide [pH 7.2]) were incubated with cells (combination of carrier cells and transiently expressed cells 2.5×10⁶ combined cells/well) for 2 hours at 4° C. in a total of […] in a 96-well microtiter plate. The plate was centrifuged and the supernatants were aspirated. One-hundred fifty microliters of ¹²⁵I goat anti-human IgG Fcγ (Jackson Immunoresearch Laboratories, Inc., West Grove, Pa.; cat #109-006-098) was added to each well and cells were incubated another 1 hour at 4° C. Free and bound probes were separated by the pthalate oil separation method, essentially as described (Dower et al., J.Immunol. 132:751-758, 1984). Goat anti-human IgG Fcγ was labeled with […] using solid phase chloramine T analog (Iodogen; Pierce Chemical, Rockford, Ill.) to a specific radioactivity of 2.11×10¹⁵ cpm/mmol. […] No binding of C1.7-Fc or CD48-Fc proteins could be detected on nontransfected cells.

B1: NAIL-Fc polypeptide (soluble NAIL-Fc fusion protein) (Fc fusion)
chain: CQGSADHVVSISGVPLQLQPNSIQTKVDSIAWKKLLPSQNGFHHILKWENGSLPSNTSNDRFSFIVKNLSLLIKAAQQQDSGLYCLEVTSISGKVQTATFQVFVFDKVEKPRLQGQGKILDRGRCQVALSCLVSRDGNVSYAWYRGSKLIQTAGNLTYLDEEVDINGTHTYTCNVSNPVSWESHTLNLTQDCQNAHQEFRRSCDKTHTCPPCPAPEAEGAPSVFLFPPKPKDTLMISRTPEVTCVVVDVSHEDPEVKFNWYVDGVEVHNAKTKPREEQYNSTYRVVSVLTVLHQDWLNGKEYKCKVSNKALPAPIEKTISKAKGQPREPQVYTLPPSREEMTKNQVSLTCLVKGFYPSDIAVEWESNGQPENNYKTTPPVLDSDGSFFLYSKLTVDKSRWQQGNVFSCSVMHEALHNHYTQKSLSLSPGK
notes: also called C1.7-Fc; soluble NAIL polypeptide
For orientation: Kd means the free concentration of one partner at which half of the binding sites on the other are occupied at equilibrium, for simple one-to-one binding. Take B1: the Kd was roughly 0.1 nM.
